This series in a line: soluble on expression in E. coli; label from the status in PepcDB or PDB records.
“MGSDKIHHHHHHMKPIQLPLSVRLRDDATFANYYPGANAAALGYVERLCEAEAGWAESLIYLWGHDGVGRSHLLQAACLRFEQFEERTIYLPMADLVQYGPEIFDDLEQCELVCIDDLDVLVGKREWEEGLFHLFNRLRDTGRRLLLAASKSPRELQVKLPDLKSRLTMALIFQLHGLSDEDKLRALQLRASRRGLHLTDEVGRFILNRGSRSMNSLFDLLEQLDRASLQAQRKLTIPFLKETLGW”: the “soluble on expression in E. coli” value is “not soluble”.
For the sequence “MDATISVVCYKSKTLSNGEHPLMLRISKDGKKKYQSLGISVNPKFWDFQKNKPKPKCPNLEYLQKIILDKKLELQKKMLEIKSDQKEYSAATLIEANEKLQVAKNVDCFYKEIIAQCEINNKCGNRLVYLNSYNSLKRFTNGKLEIPFNTINVAWLEKYEKWLRSNGNKETTISLMFRTLRSTYNKAIKERCAHLSDYPFQEYKISKFDTSTQKRAIAKTDMLKFTETSQPIGQKKYVELSKDIFIFSYLCGGINFTDIANLTQENIVNGRLHYIRQKTGKLIKIGIPQEAMQIIKKYTDESNG”, the “soluble on expression in E. coli” value was “not soluble”.
The entry for “MSSQPRFIHLRTHTDFSMIDSIVKVKPLVKACAANEMVAMGLTDFTNFCGVVSFYSEMLSSGMKPIIGADVKVKSPLCGDEYFDLTLLAKNNEGYRNITLLLSKAYQRGYNDLPYIDQDWLIEHRDGVIILSGGTQGDVGKKLLKENVAEIESAVAFYQEFFADHFYLALSRTGRPNEERYIQAALKLAERCDLPLVATNDVMFLNTEDFEAHEIRVAIHDGYTLDDPKRPKCYTSQQYFRSEEDMCKLFADIPSALENTLLIAQRCSVTLRLGQYFLPQFPTGDLSTEDFLVQKSKEGLEERLVFLFPDEKVRLEKRPKYDERLQVELDVINQMGFPGYFLIVMEFIQWSKDNDIPVGPGRGSGAGSLVAYALKITDLDPLEFDLLFERFLNPERVSMPDFDVDFCMDGRDRVIEHVAETYGRGAVSQIITFGTMAAKAVIRDVGRVLGHPYGFVDRISKLIPPDPGMTLAKAFETEPQLQTAYDSDEEVRALINMARKLEGVTRNAGKHAGGVVISPTLITDFAPLYCDNEGLHPVTHFDKNDVEYAGLVKFDFLGLRTLTIIKWALDIINVRMVREGKPRVDIAAIPLDDPESFELLKRSETTAVFQLESRGMKDLIKRLQPDCFEDIIALVALFRPGPLQSGMVDNFIDRKHGREEVSYPDAEYQHASLKPILEPTYGIILYQEQVMQIAQVLAGYTLGGADLLRRAMGKKKPEEMAKQRLVFKEGAEKNGIDGELSMKIFDLVEKFAGYGFNKSHSAAYALVSYQTLWLKTHFPAEFMAAVMTSEMDNTDKIVGLYDECLRMGLKVTPPDINIGKHHFSVNEQGEIVYGIGAIKGVGEGPIEALVAARNEGGIFKDLFDLCARVDLKKINRRTFESLIMSGAFDKLGPHRAALSKNLEDALRASDQHAKDEAMGQTDMFGVLTETHEDVENAYANTPPYTEKQILDGERETLGLYLSSHPVSRYLKELSHYTSTRLKDLAPNRRGQISTVAGLVVASRIAMTKKGNRLGIATLDDRSGRLDLTLFGESLEQFGEKLQKDTVIVASGQVSFDDFSGGLKMTVRELMTLDEARSRYVKSLAISLSEHQITPSFIKQFKALLEPVSGGTLPINVYYQSPKGRALLRLGVQWSIIPTDEILTELVNLLGESAVELEFE” is “not soluble”.
As for “MSLAAPLTVGFSQVGSESGWRAAETNVAKSEAEKRGITLKIADGQQKQENQIKAVRSFVAQGVDAIFIAPVVATGWEPVLKEAKDAEIPVFLLDRSIDVKDKSLYMTTVTADNILEGKLIGDWLVKEVNGKPCNVVELQGTVGASVAIDRKKGFAEAIRNAPNIKIIRSQSGDFTRSKGKEVMESFIKAENNGKNICMVYAHNDDMVIGAIQAIKEAGLKPGKDILTGSIDGVPDIYKAMIDGEANASVELTPNMAGPAFDALEKYKKDGTMPEKLTLTKSTLYLPDTAKEELEKKKNMGYEGHHHHHH”, the “soluble on expression in E. coli” value is recorded as “soluble”.
In the case of “MYEAHFGLKQLPFTLTPNTSLFHGLSPHYEAIHTVLSAISMGEGIIKVTGEVGTGKTLVCRMLINELPSNVELLYLPNPVMNGHELRQALAKELWLDQSGDDIALIDRIHEKIIDLHAEGKLVVVFIDEAQALSDEALETLRLFGNLETDYKKLLQIVLFGQPELDERLQQHNLRQLRQRITFSALLRALNMNETVAYIRYRIAESGCENNPFSLVQMKAIWKATNGIPRLINQVCHKSLLIAFSEQVNNVPSKAVFNAIIDTADTVKPKHYFPTFWGWRVSLEHHHHHH” it was “soluble”; in that of “MGSDKIHHHHHHMLHNTNQPQISRQMNELEAQCGGRLFNRTGRGVELTDLGQHLLPKIRSWLNVTDQLNNEILHSTDTPIGTVRIASLPSTAHPLLSTLYKVLQEKYPLIKLSVREGQGVHLEKWLEDGSVDLAILYRFNPTPKQGDIYLTQADTYLVGCEGDALTQASEVDFKAINQLPLVTFCRPSNWRNFLDHMAYENGVELNIVFEADSISLQTHLVSESRMYTMLGPQALKKASQYTSIQAAKIINPALKRYISLSISKHGYLTPACKAVMEEIRNLADLL”, “not soluble”.
The entry for “MNIYQQLVKQKLKTITPEELVSYSREYGLPITTSQAKQILHLARTNDINVFDPEERKKWVRELAKITSPDIARKANELFLKFVQKK” is “not soluble”; for “MAHHHHHHMECVELTPSESGTINRRGAIPANLAGNSYYARRYSTQGGTRRGTLDATEPHVQFRSGDLVLQLCLSAVPRELSHKRIVDVTGIQTSFHNVSERQSKALATVEEAMQTMHLHDGHEVPALQRGDVNLVRLQPRCVYISPPPSHSFAAGEAVAVDLRHLSSALRPLSNPYVLLAQTRRLSFRSEMEAVQTAQVMASFLTELRGGGAVSEGCGSSVGVFGSAAVLRPVVRDGHLVAMTLCPPRDTARGCRRR” it is “not soluble”; for “MTPIPFFNHMLITLLTYMNSTAIVSATDKLPYDDHHIVEDVAITLGLAIKTALGDKRGIKRFSHQIIPMDDALVLVSLDISNRGMAFVNLNLKRSEIGGLATENVPHFFQSFAYNSGITLHISQLSGYNTHHIIEASFKALGLALY” it is “soluble”.
In the case of “MSLSDKDKRRLEYKELAKESKAKSKMLAASQGKGLVAKIAIGSALGNIIGNAMSKAAGGLLGFAKKAVEEKSKTNRAKLLNSAFFEKDERNTIMGTLKGMKGFERDLEKEEFLNQASVFKGTLRDLGMLNLTNLKKAVEFSAALKSSGAMSGEDAVKAVNSLLSGEGDELFDLLKKSGVGDKYIEDAKKAWQSGAEVDLESRITMLVEMFKDFKSFGITKKADTKEEIDSNLASAEQTLSNLTTTVLDPLLKFIKMVTGLSEGHHHHHH” it was “soluble”; in that of “MSLLDRLNDDMKQAMKNKEKEKLSVLRMLKAALQNEAIKLGKSPLSEDEELTVLSRELKQRKDSLQEFENAGRSDLVEKVKTEIEIVQSYMPTPLTEDELRELIEQTIKEVGASSKADMGKVMGAIMPKVKGRADGSLVNKLVQQQLS”, “soluble”.
Take “LLWPNYMRPLPAFSILQFDPLTRPGGALRVERDTPVESRPVGEVACRFRTCYATEVLPLVLEALNYSVTGEGALLGLRLAMNCDGHLGELGLSRLRLHLAGERYISQMLYLCLLRNLESIQLIPLDAHGRPLDGVAGKPMSFRLTGERVQPVGFAEDEALIPYPLNTFRGYRYLQEYFAFQDKFLFVDVDGLDLLGALPEETLKQVRGLELRFDIRKSGIQRLHPTLENVKLYCTPVANLFRHDALPIRLDGKQDEYLLMPAEYSLEDCGVFSVEGVTGWRPGGLGYQAYVPFESFEHDPSFDVPEARPHYSVRQRTSLLHDGLDTYLSFGIRHPEQIETLSVELTCTNQNLPQRLRLGDICVACEGTPEFLGFRNITPATPSYAPPLNRDFLWKLISNMSLNYLSLANVDALKVILETYDLPRYYDQHAAKVSKRLLGGLKAVRHEHVDRLHRGLPLRGLRTELTIDPEGYIGEGDLFVFASVLNEFFALYASINSYHELRVRSTQGDVYQWKPRMG”: the “soluble on expression in E. coli” value is given as “not soluble”.
The entry for “MKKTFNLVATAAAGIEAVVGKELRNLGLDCQVENGRVLFKGNIETIAKSNLWLRSADRIKIVVGEFPARTFEELFQGVYALDWENYLPLGCQFPVAKAKSVKSKLHNEPSIQGITKKAIVKKLQHYFHRPDSVPLPENGPEFKIEISLLKDQARVMIDTTGPSLFKRGYRTEKGGAPIKENMAAAIILLSNWFPDKPFVDPTCGSGTFCIEAAMIGMNIAPGFNRDFAFEEWPWVDEALVTRVRNEADEQADYDIQLDISGFDFDGRMVEIARKNAREVGLEDVVKLKQMRLQDFKTNKINGVLISNPPYGERLLDDKAVDILYNEMGETFAPLKTWSQFILTNDTDFEQKFGRKADKKRKLYNGSLKVDLYQFYGQRVKRVLR” is “soluble”; for “MLEFVMREWKKSRKLLGQRLFNKLMKMTFYGHFVAGEDQESIQPLLRHYRAFGVSAILDYGVEEDLSPEEAEHKEMESCTSAAERDGSGTNKRDKQYQAHRAFGDRRNGVISARTYFYANEAKCDSHMETFLRCIEASGRVSDDGFIAIKLTALGRPQFLLQFSEVLAKWRCFFHQMAVEQGQAGLAAMDTKLEVAVLQESVAKLGIASRAEIEDWFTAETLGVSGTMDLLDWSSLIDSRTKLSKHLVVPNAQTGQLEPLLSRFTEEEELQMTRMLQRMDVLAKKATEMGVRLMVDAEQTYFQPAISRLTLEMQRKFNVEKPLIFNTYQCYLKDAYDNVTLDVELARREGWCFGAKLVRGAYLAQERARAAEIGYEDPINPTYEATNAMYHRCLDYVLEELKHNAKAKVMVASHNEDTVRFALRRMEELGLHPADHQVYFGQLLGMCDQISFPLGQAGYPVYKYVPYGPVMEVLPYLSRRALENSSLMKGTHRERQLLWLELLRRLRTGNLFHRPA” it is “soluble”; for “MKMVTGAVASVLEDEATDTSDSEGSCGSEKDHFYSDDDAIEADSEGDAEPCDKENENDGESSVGTNMGWADAMAKVLNKKTPESKPTILVKNKKLEKEKEKLKQERLEKIKQRDKRLEWEMMCRVKPDVVQDKETERNLQRIATRGVVQLFNAVQKHQKNVDEKVKEAGSSMRKRAKLISTVSKKDFISVLRGMDGSTNETASSRKKPKAKQTEVKSEEGPGWTILRDDFMMGASMKDWDKESDGPDDSRPESASDSDT” it is “not soluble”.
The entry for “QVQLVQSGAEVRKPGASVKVSCKASGDTFSSYAISWVRQAPGQGLEWMGGIIPIFGTANYAQAFQGRVTITANESTSTAYMELSSLRSEDTAIYYCARDNPTLLGSDYWGAGTLVTVSSASTKGPSVFPLAPCSRSTSGGTAALGCLVKDYFPEPVTVSWNSGALTSGVHTFPAVLQSSGLYSLSSVVTVPSSSLGTQTYICNVNHKPSNTKVDKRV” is “soluble”; for “MGSDKIHHHHHHMQAFDELLTVEQLSFSYEEDEKPVFQDISFELQKGECVLLLGPSGCGKSSLALCLNGLYPEACDGIQSGHVFLFQKPVTDAETSETITQHAGVVFQDPDQQFCMLTVEDEIAFGLENLQIPKEEMTEKINAVLGKLRITHLKEKMISTLSGGQKQKVALACILAMEPELIILDEPTSLLDPFSAREFVHLMKDLQREKGFSLLVIEHQLDEWAPWIERTIVLDKSGKKALDGLTKNLFQHEAETLKKLGIAIPKVCHLQEKLSMPFTLSKEMLFKEPIPAGHVKKKKAPSGESVLEVSSLSFARGQQAIFKDISFSLREGSLTALVGPNGTGKSTLLSVLASLMKPQSGKILLYDQPLQKYKEKELRKRMGFVFQNPEHQFVTDTVYDELLFGQKANAETEKKAQHLLQRFGLAHLADHHPFAISQGQKRRLSVATMLMHDVKVLLLDEPTFGQDARTAAECMEMIQRIKAEGTAVLMITQGYGASLFVC” it is “not soluble”.
The entry for “MIRQTLWSDVAAPLQNAFQTNNSGNRPVLMMLGGYTFSLASLVYQELARVNEYRWAAIERYGQRDARQYTGPGDESIELPGIAYPDWQGQRASLDELRALAAQGKPLQLIDSNGLIHGWYVIERIEERQSDHHPNGTPRRIEFTLALQRVNDDHAVEATP” is “not soluble”.
